Data taken from PMC9407465.

Experiments:
[1] = IP and acetylation immunoblot
[2] = Bcl2 promoter luciferase, HEK293T; details: WT Gli2
[3] = Gli2 level in primary GNPs; details: glycan lost; control: untreated GNPs
[4] = IP immunoblot from P30 cerebellum; details: glycan lost; control: SmoM2Atoh1 mice
[5] = GLI2 level in Daoy cells; details: glycan lost; control: DMSO

B1: Gli2 (GLI family zinc finger 2): OSMI-1 (protein)
parent chain: METSAPAPALEKKEAKSGLLEDSSFPDPGKKACPLAVAAAVAAHGVPQQLLPAFHAPLPIDMRHQEGRYHYDPHSVHSVHGPPTLSGSPVISDISLIRLSPHPAGPGESPFSAHHPYVNPHMEHYLRSVHSSPTLSMISAARGLSPADVAHEHLKERGLFSLAAPGTNPSDYYHQMTLMASHPTPYGDLLMQSGGAASAPHLHDYLNPVDASRFSSPRVTPRLSRKRALSISPLSDASLDLQRMIRTSPNSLVAYINNSRSSSAASGSYGHLSAGALSPAFTFPHPINPVAYQQILSQQRGLGSAFGHTPPLIQPSPTFLAQQPMTLTSISTMPTQLSSSSSNCLNDANQNKQNSESAVSSTVNPITIHKRSKVKTEAEGLRPASPLGLTQEQLADLKEDLDRDDCKQEAEVVIYETNCHWADCTKEYDTQEQLVHHINNEHIHGEKKEFVCRWQACTREQKPFKAQYMLVVHMRRHTGEKPHKCTFEGCSKAYSRLENLKTHLRSHTGEKPYVCEHEGCNKAFSNASDRAKHQNRTHSNEKPYICKIPGCTKRYTDPSSLRKHVKTVHGPDAHVTKKQRNDVHVRAPLLKENGDNEASAEPGGRGPEESVEASSTSHTVEDCLHIKAIKTESSGLCQSSPGAQSSCSSEPSPLGSAPNNDSGMEMPGTGPGSLGDLTALADTCPGADTSALAAPSTGGLQLRKHMSTVHRFEQLKREKLKSLKDSCSWAGPAPHTRNTKLPPLPVNGSVLENFNNTGGGGPAGLLPSQRLPELTEVTMLSQLQERRDSSTSTMSSAYTVSRRSSGISPYFSSRRSSEASPLGGLRPHNASSADSYDPISTDASRRSSEASQCSGGGPGLLNLTPAQQYNLRAKYAAATGGPPPTPLPGLDRVSLRTRLALLDAPERALPGACPHPLGPRRGSDGPTYSHGHGHGYAGAAPAFPHEGPNSSTRRASDPVRRPDPLILPRVQRFHSTHNMNPGSLPPCADRRGLHVQSHPSVDSNLTRNAYSPRPPSINENVVMEAVAAGVDGPGLECDLGLVEDELVLPDDVVQYIKAHTGGTLDDGIRQGYPTEGTGFPENSKLPSPGLQGHRRLAAADSNMGPSAPGLGGCQLSYSPSSNLNKSNMPVQWNEVSSGTVDALPTQVKPPPFPHSNLAVVQQKPAFGQYPGYNPQSVQSSSGGLDSTQPHLQLRGAPSASRGSYTQQPRQPAAGSQCLGMSAAMSPQASYSQAHPQLSPNIVSGSLNQFSPSCSNMAAKPSHLGLPQQMEVVPNATIMNGHQREHGVPNSSLAAVSQPHPVLSYPQQDSYQQGSNLLSSHQPGFMESQQNAGFGLMQPRPPLEPNTASRHRGVRSGQQQLYARTTGQAMVTSANQETAEAMPKGPAGTMVSLAPQPSQDTGRAQDQNTLYYYGQIHMYEQNGGCPAVQPQPPQPQACSDSIQPEPLPSPGVNQVSSTVDSQLLEPPQIDFDAIMDDGDHSSLFSGALSPTLLHNLSQNSSRLTTPRNSLTLPSIPAGISNMAVGDMSSMLTSLAEESKFLNMMT
other: Gli2 acetylation ([1]; glycan lost, control: untreated, WT Gli2): increases
other: transcriptional activity ([2]; glycan lost, control: DMSO): decreases
expression_or_secretion [3]: decreases

B2: Gli2 (GLI family zinc finger 2): OGT overexpression (protein)
parent chain: B1 parent chain
other: Gli2 acetylation ([1]; glycan gained, control: without OGT overexpression): decreases
other: transcriptional activity ([2]; glycan gained, control: pEGFP-C1 vector): increases

B3: Gli2 (GLI family zinc finger 2): SmoM2Atoh1;OGTAtoh1 (OGT knockout in GNPs) (protein)
parent chain: B1 parent chain
other: Gli2 acetylation [4]: increases

B4: human GLI2: OSMI-1 (protein)
parent chain: METSASATASEKQEAKSGILEAAGFPDPGKKASPLVVAAAAAAAVAAQGVPQHLLPPFHAPLPIDMRHQEGRYHYEPHSVHGVHGPPALSGSPVISDISLIRLSPHPAGPGESPFNAPHPYVNPHMEHYLRSVHSSPTLSMISAARGLSPADVAQEHLKERGLFGLPAPGTTPSDYYHQMTLVAGHPAPYGDLLMQSGGAASAPHLHDYLNPVDVSRFSSPRVTPRLSRKRALSISPLSDASLDLQRMIRTSPNSLVAYINNSRSSSAASGSYGHLSAGALSPAFTFPHPINPVAYQQILSQQRGLGSAFGHTPPLIQPSPTFLAQQPMALTSINATPTQLSSSSNCLSDTNQNKQSSESAVSSTVNPVAIHKRSKVKTEPEGLRPASPLALTQGQVSGHGSCGCALPLSQEQLADLKEDLDRDDCKQEAEVVIYETNCHWEDCTKEYDTQEQLVHHINNEHIHGEKKEFVCRWQACTREQKPFKAQYMLVVHMRRHTGEKPHKCTFEGCSKAYSRLENLKTHLRSHTGEKPYVCEHEGCNKAFSNASDRAKHQNRTHSNEKPYICKIPGCTKRYTDPSSLRKHVKTVHGPDAHVTKKQRNDVHLRTPLLKENGDSEAGTEPGGPESTEASSTSQAVEDCLHVRAIKTESSGLCQSSPGAQSSCSSEPSPLGSAPNNDSGVEMPGTGPGSLGDLTALDDTPPGADTSALAAPSAGGLQLRKHMTTMHRFEQLKKEKLKSLKDSCSWAGPTPHTRNTKLPPLPGSGSILENFSGSGGGGPAGLLPNPRLSELSASEVTMLSQLQERRDSSTSTVSSAYTVSRRSSGISPYFSSRRSSEASPLGAGRPHNASSADSYDPISTDASRRSSEASQCSGGSGLLNLTPAQQYSLRAKYAAATGGPPPTPLPGLERMSLRTRLALLDAPERTLPAGCPRPLGPRRGSDGPTYGHGHAGAAPAFPHEAPGGGARRASDPVRRPDALSLPRVQRFHSTHNVNPGPLPPCADRRGLRLQSHPSTDGGLARGAYSPRPPSISENVAMEAVAAGVDGAGPEADLGLPEDDLVLPDDVVQYIKAHASGALDEGTGQVYPTESTGFSDNPRLPSPGLHGQRRMVAADSNVGPSAPMLGGCQLGFGAPSSLNKNNMPVQWNEVSSGTVDALASQVKPPPFPQGNLAVVQQKPAFGQYPGYSPQGLQASPGGLDSTQPHLQPRSGAPSQGIPRVNYMQQLRQPVAGSQCPGMTTTMSPHACYGQVHPQLSPSTISGALNQFPQSCSNMPAKPGHLGHPQQTEVAPDPTTMGNRHRELGVPDSALAGVPPPHPVQSYPQQSHHLAASMSQEGYHQVPSLLPARQPGFMEPQTGPMGVATAGFGLVQPRPPLEPSPTGRHRGVRAVQQQLAYARATGHAMAAMPSSQETAEAVPKGAMGNMGSVPPQPPPQDAGGAPDHSMLYYYGQIHMYEQDGGLENLGSCQVMRSQPPQPQACQDSIQPQPLPSPGVNQVSSTVDSQLLEAPQIDFDAIMDDGDHSSLFSGALSPSLLHSLSQNSSRLTTPRNSLTLPSIPAGISNMAVGDMSSMLTSLAEESKFLNMMT
expression_or_secretion [5]: decreases
